{
  "source": "patent US9289500B2",
  "about": "“Saccharide-peptide hydrogels” (The Regents of the University of California, priority 2013, dated 2016)",
  "key": {"IFN-γ": {"target": "T1, IFN-γ (Homo sapiens, UniProt P01579)", "T1 sequence (P01579 24-161 limits assumed)": "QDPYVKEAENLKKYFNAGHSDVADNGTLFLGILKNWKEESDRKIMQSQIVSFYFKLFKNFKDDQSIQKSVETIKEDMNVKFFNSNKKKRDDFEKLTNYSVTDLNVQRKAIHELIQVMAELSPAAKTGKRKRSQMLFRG", "details": "cited from earlier work"}, "TNF-α [1]": {"tested_on": "TNF-α", "assay": "TNF-α mediated PUMA mRNA up-regulation in islets", "type": "cell-based", "details": "human islets", "text": "PUMA and INS Pre-mNRA as markers for islet health in response to cytokine insults. Inflammation mediated proinflammatory cytokines, including Tumor necrosis factor (TNF)-α, Interleukin(IL)-1β, Interferon (IFN)-γ, play an important role on β cell death, leading to primary graft nonfunction. […] Elevated PUMA mRNA by TNF-α or the TNF-α+ and IFN-γ combination correlated with decreased islet function, as indicated by decreased preproinsulin (INS) pre-mRNA expression (r=−0.45, p<0.001) assessed by the single islet gene expression assay (RT-PCR). TNF-α receptor blocker, Etanercept, abolished TNF-α mediated PUMA mRNA up-regulation in human islets. PUMA mRNA and INS pre-mRNA expressions are used herein as markers for islet health under cytokine insults."}, "TNF-α [2]": {"target": "TNF-α (Homo sapiens, UniProt P01375)", "sequence (P01375 77-233 limits assumed, species assumed)": "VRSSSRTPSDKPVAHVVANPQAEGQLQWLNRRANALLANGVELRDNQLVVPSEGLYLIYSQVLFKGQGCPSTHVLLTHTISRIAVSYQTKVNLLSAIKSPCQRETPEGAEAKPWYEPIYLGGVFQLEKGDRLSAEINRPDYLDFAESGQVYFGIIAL", "details": "cited from earlier work"}, "[3]": {"tested_on": "Peripheral blood mononuclear cells (PBMC)", "assay": "In vitro biocompatibility: stimulation assay of PBMC, cytokine mRNA", "type": "cell-based, LEW rat", "details": "IFN-γ, CXCL1, IL6, GMCSF mRNA levels", "description": "In Vitro Biocompatibility Assay of SP Hydrogel by Stimulation Assay of Peripheral Blood Mononuclear Cells (PBMC). PBMC from a normal LEW rat were isolated using Histopaque (Sigma-Aldrich, St. Louis, Mo.). 1×10^6 Cells were incubated with either 0.5 μL phosphate buffered saline (PBS), 0.5 mg vicryl suture, 0.5 mg hydrogel, 0.5 mg VS-polymer, 0.5 mg Cys-polymer, or 5 μg of LPS for 20 hours at 37° C. Differences in Ct between the target and control (Actb) mRNA (ΔCt) were used to quantify the relative level for each sample's mRNA expression.\nEx vivo biocompatibility of soluble polymers and SP hydrogel: An SP hydrogel was formed by in situ crosslinking by mixing a cysteine-functionalized (Cys-polymer) and a vinyl sulfone-functionalized (VS-polymer) saccharide-peptide copolymer under mild conditions, according to protocols presented in Chawla et al., Biomacromolecules (2011) 12:560-567, and Chawla et al., Biomaterials (2012) 33:6052-6060, which are incorporated herein in their entirety. […] The mRNA expression of inflammatory cytokines released by PBMC, including TNF-α (killer cell), IFN-γ (T-cell activation), CXCL1 (IL-8 analog, recruiter), IL6 (killer cell), and GMCSF (antigen presentation) was assessed to detect any immune stimulatory effect."}},
  "note": "Bridges are numbered along the chain shown (N, C = ends). Where no end group is shown, it is not given here. The star is where a group is joined. Acm = CC(=O)NC*",
  "data": [
    {"substance": "AYC(acm)RDGKIGPPKLDIRKEEKQI (AYC(Acm)RDGKIGPPKLDIRKEEKQI) [antagonizing peptide for IFN-γ; acm: acetamidomethyl]", "values": [
      {"measurement": "antagonism of IFN-γ", "setting": "IFN-γ", "value": "potent antagonists"}
    ]},
    {"substance": "Etanercept", "values": [
      {"measurement": "TNF-α mediated PUMA mRNA up-regulation", "setting": "TNF-α [1]", "value": "abolished"}
    ]},
    {"substance": "YCWSQYLCY (disulfide 2-8 (inferred)) [antagonizing peptide for TNF-α]", "values": [
      {"measurement": "antagonism of TNF-α", "setting": "TNF-α [2]", "value": "potent antagonists"}
    ]},
    {"substance": "lipopolysaccharide [LPS]", "values": [
      {"measurement": "stimulatory effect / mRNA response compared to LPS", "setting": "[3]", "value": "highest stimulatory effect"}
    ]}
  ]
}
